Test results as given in patent US20240182547A1.
Substitutions are numbered along the chain they refer to.

B1: 12A1 (antibody, V domains shown)
VH: EVQLVESGGGLIQPGGSLRLSCAGSGFTFSSYTMHWVRQAPGKGLEWVSSITGGSSYVDYSASVKGRFTISRDNAQSSLYLQMNSLRAEDTAVYYCARDDYGSGSYSNWFDPWGQGTLVTVSS
VL: QSVLTQPPSVSGAPGQRVTISCTGSSSDIGAGYDVHWYQQLPGTAPKLLIFANTNRPSGVPDRFSGSKSGASASLAITGLQADDEADYYCQSYDRSLSHVFGTGTKVTVLG
B2: 3H8 (antibody, V domains shown)
VH: B1 VH with I12V, Q13K, Q115R, L118T
VL: B1 VL with S2P, P8L, V10A, A13T, D28N, T44R, A71T, D83E
B3: 12B11 (antibody, V domains shown)
VH: EVQLVESGGGVVQPGRSLRLACAASGFTFNSYAMHWVRQAPGKGLEWVSSITGGSSYVDYSASVKGRFTISRDNAQSSLYLQMNSLRAEDTAVYYCARDMYGLGSYYSPNYFDPWGQGTLVTVSS
VL: B1 VL with Q1S, S2Y, V3E, D28N, T44R, A71T, D83E, R95S, H99Y
B4: 4G1 (antibody, V domains shown)
VH: QVTLKESGGGLVKPGGSLRLSCAASGFRLSSYGMNWVRQAPGKGLEWVSSISASSSFINYADSVRDRFTISRDNAKNSLYLQMNSLRAEDTAVYYCARDDYGSGSYSNWFDPWGQGTLVTVSS
VL: B1 VL with S25N, D28N, I29L, T44R, G79S
B5: #12m (antibody, V domains shown)
VH: EVQLVESGGGLVKPGGSLRLSCAGSGFAFSSYTMHWVRQAPGKGLEWVSSITGGSSYLDYAHSVKGRFTISRDNGQNSLFLQMNSLRTEDTAVYYCARDDYGSGSYSNYFDPWGQGTLVTVSS
VL: B1 VL with D28N, L41V, A52G, N53S, A82T, D83E
B6: 2H1 (antibody, V domains shown)
VH: B1 VH with E1Q, Q3T, V5K, L11V, I12V, P14S, G16R, G24A
VL: B1 VL with D28N, T44R, F51Y, P61A
B7: 10E7 (antibody, V domains shown)
VH: EVQLVESGGGLVKPGGSLRLSCAASGFTFTSYRMHWVRQAPGKGLEWVSSITGGGNYIEYADSVKGRFTISRDNAKNSLDLQMNSLRAEDTAIYYCARDMYGLGSYYSPNYFDSWGQGTLVTVSS
VL: B1 VL with D28N, T44R

Biological target: recombinant F-protein (respiratory syncytial virus (RSV)) (UniProt P03420)
Sequence (P03420 whole entry): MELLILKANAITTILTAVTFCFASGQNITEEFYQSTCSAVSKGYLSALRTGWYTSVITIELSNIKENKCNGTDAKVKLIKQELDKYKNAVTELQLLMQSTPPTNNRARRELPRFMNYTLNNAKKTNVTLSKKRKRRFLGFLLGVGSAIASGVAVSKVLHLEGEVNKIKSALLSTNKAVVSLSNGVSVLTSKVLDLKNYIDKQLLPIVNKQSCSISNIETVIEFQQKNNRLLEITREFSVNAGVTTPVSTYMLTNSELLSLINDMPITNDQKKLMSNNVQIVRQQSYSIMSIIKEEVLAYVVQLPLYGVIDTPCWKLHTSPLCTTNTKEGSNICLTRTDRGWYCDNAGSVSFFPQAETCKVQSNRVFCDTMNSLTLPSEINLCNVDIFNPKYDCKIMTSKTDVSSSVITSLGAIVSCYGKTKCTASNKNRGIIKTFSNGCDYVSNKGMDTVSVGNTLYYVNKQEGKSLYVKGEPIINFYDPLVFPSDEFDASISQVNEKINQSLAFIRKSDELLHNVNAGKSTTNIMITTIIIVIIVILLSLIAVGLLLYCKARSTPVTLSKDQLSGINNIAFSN
Test: SPR Biacore T-200, antibody captured on protein A chip, F-protein as analyte

Row | Binder | Kd [nM] | koff [s⁻¹] | kon [M⁻¹ s⁻¹]
1 | B1 | 0.0114 | 3.18e-05 | 2.8e+06
2 | B2 | 0.00397 | 6.06e-05 | 1.53e+07
3 | B3 | 0.0115 | 2.89e-05 | 2.52e+06
4 | B4 | 0.0341 | 6.02e-05 | 1.77e+06
5 | B5 | 0.00677 | 2.07e-05 | 3.06e+06
6 | B6 | 0.00384 | 5.74e-05 | 1.5e+07
7 | B7 | 0.0138 | 2.81e-05 | 2.03e+06
